± gives the uncertainty stated by the source.
B1: WW domain-containing transcription regulator protein 1, residues 116 to 162; numbered along this chain, Q9GZV5 (parent)
chain: QSYDVTDELPLPPGWEMTFTATGQRYFLNHIEKITTWQDPRKAMNQP

Variants of: B1
Assay: abundance fitness (aPCA) (normalised: wild type 0, dead -1); higher = more abundant; growth selection in yeast, the domain comes from the species named
Settings: Homo sapiens

| Variant | abundance fitness |
| --- | --- |
| T22E | -0.028 ± 0.031 |
| T22S | -0.058 ± 0.033 |
| T22D | 0.104 ± 0.032 |
| T22C | -0.033 ± 0.034 |
| T22L | -0.192 ± 0.034 |
| T22H | -0.184 ± 0.035 |
| T22V | -0.37 ± 0.029 |
| T22Y | -0.422 ± 0.061 |
| Y26T | -0.409 ± 0.05 |
| Y26I | -0.409 ± 0.074 |
| Y26P | -0.814 ± 0.15 |
| Y26W | -0.587 ± 0.054 |
| Y26C | -0.566 ± 0.065 |
| Y26H | -0.387 ± 0.071 |
| P47S | -0.125 ± 0.06 |
| P47L | 0.053 ± 0.48 |
| P47G | -0.677 ± 0.21 |
| P40K | -0.834 ± 0.13 |
| P40W | -1 ± 0.069 |
| P40D | -0.914 ± 0.14 |
| P40F | -1.09 ± 0.4 |
| P40R | -0.999 ± 0.063 |
| P40I | -0.97 ± 0.17 |
| M44G | 0.004 ± 0.029 |

| Variant | abundance fitness |
| --- | --- |
| M44T | -0.028 ± 0.031 |
| M44K | -0.033 ± 0.054 |
| M44D | 0.076 ± 0.064 |
| M44E | 0.03 ± 0.026 |
| M44R | -0.06 ± 0.032 |
| M44P | -0.068 ± 0.027 |
| E16I | -0.266 ± 0.028 |
| E16T | -0.215 ± 0.037 |
| E16R | -0.365 ± 0.027 |
| E16D | -0.039 ± 0.05 |
| E16N | -0.58 ± 0.091 |
| E16Y | -0.78 ± 0.13 |
| E16M | -0.387 ± 0.038 |
| E16L | -0.364 ± 0.046 |
| E16S | -0.081 ± 0.027 |
| E16G | -0.22 ± 0.03 |
| P13G | -0.136 ± 0.025 |
| P13V | -0.058 ± 0.029 |
| P13N | -0.022 ± 0.052 |
| P13H | -0.014 ± 0.03 |
| P13A | -0.043 ± 0.032 |
| P13Y | -0.112 ± 0.051 |
| I34A | -0.304 ± 0.031 |
| I34L | -0.089 ± 0.027 |

| Variant | abundance fitness |
| --- | --- |
| I34F | 0.014 ± 0.026 |
| I34N | -0.343 ± 0.063 |
| I34P | -0.813 ± 0.034 |
| I34E | -0.265 ± 0.028 |
| D7H | 0.053 ± 0.055 |
| D7I | -0.195 ± 0.055 |
| D7S | -0.104 ± 0.038 |
| D7A | -0.049 ± 0.027 |
| D7T | -0.065 ± 0.056 |
| D7E | -0.314 ± 0.05 |
| D7C | -0.202 ± 0.05 |
| D7K | -0.041 ± 0.039 |
| W15S | -0.686 ± 0.026 |
| W15L | -0.89 ± 0.046 |
| W15R | -0.625 ± 0.029 |
| W15C | -0.627 ± 0.03 |
| W15D | -0.532 ± 0.054 |
| W15Q | -0.5 ± 0.071 |
| W15M | -0.695 ± 0.039 |
| W37R | -0.392 ± 0.03 |
| W37P | -0.51 ± 0.044 |
| W37V | -0.348 ± 0.034 |
| W37N | -0.364 ± 0.051 |
| W37F | -0.047 ± 0.041 |

| Variant | abundance fitness |
| --- | --- |
| W37M | -0.265 ± 0.041 |
| W37S | -0.324 ± 0.029 |
| L11C | -0.432 ± 0.049 |
| L11M | -0.07 ± 0.038 |
| L11N | -0.789 ± 0.13 |
| L11H | -0.676 ± 0.081 |
| L11S | -0.609 ± 0.035 |
| L11R | -0.847 ± 0.03 |
| L11I | -0.337 ± 0.04 |
| L11T | -0.548 ± 0.042 |
| L11Q | -0.684 ± 0.075 |
| R41V | -0.518 ± 0.03 |
| R41Y | -1.11 ± 0.43 |
| R41C | -0.689 ± 0.086 |
| R41I | -0.603 ± 0.094 |
| R41W | -0.689 ± 0.069 |
| R41N | -0.505 ± 0.064 |
| R41A | -0.5 ± 0.036 |
| R41D | -0.806 ± 0.061 |
| R41L | -0.747 ± 0.062 |
| R41P | -0.785 ± 0.068 |
| R41K | -0.688 ± 0.042 |
| G14P | -0.378 ± 0.043 |
| G14M | -0.505 ± 0.026 |

| Variant | abundance fitness |
| --- | --- |
| G14Y | -0.421 ± 0.028 |
| G14K | -0.466 ± 0.027 |
| G14D | -0.259 ± 0.032 |
| L28N | -0.446 ± 0.085 |
| L28Y | -0.268 ± 0.087 |
| L28S | -0.205 ± 0.043 |
| L28D | -0.909 ± 0.15 |
| L28A | -0.143 ± 0.043 |
| L28T | -0.096 ± 0.059 |
| F19W | -0.021 ± 0.027 |
| F19L | -0.115 ± 0.031 |
| F19V | -0.054 ± 0.032 |
| F19T | -0.108 ± 0.049 |
| F19A | -0.06 ± 0.03 |
| P12T | -0.758 ± 0.076 |
| P12L | -0.738 ± 0.048 |
| P12W | -0.826 ± 0.073 |
| P12V | -0.921 ± 0.091 |
| P12D | -0.604 ± 0.058 |
| P12R | -0.692 ± 0.045 |
| E32D | -0.072 ± 0.045 |
| E32T | -0.017 ± 0.033 |
| E32H | -0.05 ± 0.048 |
| E32A | 0.028 ± 0.025 |

| Variant | abundance fitness |
| --- | --- |
| E32K | 0.006 ± 0.042 |
| E32P | -0.805 ± 0.045 |
| E32G | -0.091 ± 0.025 |
| E32I | -0.055 ± 0.04 |
| Q38E | -0.117 ± 0.027 |
| Q38W | -0.112 ± 0.033 |
| Q38G | -0.264 ± 0.028 |
| Q38R | -0.017 ± 0.023 |
| Q38F | -0.086 ± 0.042 |
| Q38D | -0.129 ± 0.033 |
| Q38N | -0.104 ± 0.032 |
| Q38T | -0.095 ± 0.031 |
| T35F | -0.566 ± 0.037 |
| T35W | -0.581 ± 0.029 |
| T35D | -0.728 ± 0.067 |
| T35Y | -0.413 ± 0.068 |
| D4G | -0.198 ± 0.036 |
| D4H | -0.207 ± 0.061 |
| D4Y | 0.048 ± 0.057 |
| D4T | -0.162 ± 0.048 |
| D4E | -0.072 ± 0.043 |
| G23I | -0.917 ± 0.12 |
| G23F | -1.15 ± 0.23 |
| G23C | -0.79 ± 0.031 |

| Variant | abundance fitness |
| --- | --- |
| G23P | -0.827 ± 0.047 |
| G23M | -0.875 ± 0.079 |
| G23Q | -0.469 ± 0.059 |
| G23W | -0.964 ± 0.054 |
| H30M | -0.259 ± 0.026 |
| H30G | -0.3 ± 0.027 |
| H30A | -0.152 ± 0.026 |
| H30K | -0.05 ± 0.044 |
| H30L | -0.344 ± 0.035 |
| H30Y | -0.338 ± 0.052 |
| H30S | -0.091 ± 0.027 |
| H30C | -0.333 ± 0.046 |
| H30V | -0.226 ± 0.025 |
| H30T | -0.106 ± 0.034 |
| M17N | -0.582 ± 0.046 |
| M17Q | 0.037 ± 0.044 |
| M17L | -0.067 ± 0.031 |
| M17G | -0.366 ± 0.026 |
| M17S | -0.102 ± 0.026 |
| M17W | -0.369 ± 0.026 |
| M17R | -0.279 ± 0.026 |
| M17Y | -0.264 ± 0.044 |
| M17P | -0.345 ± 0.037 |
